Assay: yeast display, Sf9 membrane polyspecificity reagent, FACS + sequencing; frameworks hold sequencing errors
Outline: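 Synthetic nanobody libraries on Saccharomyces cerevisiae BJ5465 were galactose-induced for 36–48 hours, stained 1 hour at 4 °C with 10% biotinylated, detergent-solubilized Sf9 membrane reagent and enriched on streptavidin microbeads. FACS then separated cells into low and high (top ~1%) gates by anti-HA (expression) and streptavidin (reagent binding) fluorescence. Genes were colony-PCR amplified, MiSeq 2 × 250 sequenced and CDR-length filtered. A clone's polyreactivity label is that of its gate of origin.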

## QVQLVESGGGLVQAGGSLRLSCAASGSTFNHYTMGWYRQAPGKERELVAAISSRGGGTYYADSVKGRFTISRDNAKNTVYLQMNSLKPEDTAVYYCAALISSGIRHSRDYWGQGTQVTVSS
  polyreactivity (PSR sort gate): high polyreactivity

## QVQLVESGGGLVQAGGSLRFSCAAYGFIFTQYAMGCYRRAPGKERELVAAISWNGGRTYYADSVNGRFTISRDNEKNTVYLQMNSLKPEDTAVYYCAARIYLSKSFNYWGQGTQVTVSS
  polyreactivity (PSR sort gate): high polyreactivity

## QVQLVESGGGLVQAGGSLRLSWAASGSIFSIYAMGWYRQAPGKERDLVASITRSSGRTYYAYSVKGRFTISRDNAKNNVYLQMNSLKPEDTAVYYCAKDYIPLALDADDYCGQGTQVTVSS
  polyreactivity (PSR sort gate): low polyreactivity

## QVQLVESGGGLVQAGGSLRLSCAASGSIFGLYAMGWYRQAPGKERELVAAITASDGSTYYADSVKGRFTISRDNAKNTVYLQMNSLKPEDTAVYYCNADAYSGYFLFDYWGQGTQVTVSS
  polyreactivity (PSR sort gate): low polyreactivity

## QVQLVESGGGLVQAGGSLRLSCAASGSTFRRYAMGWYRQAPGKEREMVAGITYGSTYYADSVKGRFTISRDNAKNTVYLLMNSLKPEDTAVYYCAADLSYTSVHGYRSDTLMDYWGQGTQVTVSS
  polyreactivity (PSR sort gate): low polyreactivity

## QVQLVESGGGLVQAGGSLRLSCAASGRTFTRYAMGWYRQAPGKERELVAAISGGGGSTYYADSVKGRFTISRDNAKNTVYLQMNSLKPEDTAVYYCAAGPWFYYWGQGTQVTVSS
  polyreactivity (PSR sort gate): low polyreactivity

## QVQLVESGGGLVQAGGSLRLSCAASGSIFSYYAMGWYRQAPGKERELVAAITTSGGSTYYADSVKGRVTISRDNAKNTVYLQMNSLKPEDTAVYYCAAETAWYITTGYDYWGQGTQVTVSS
  polyreactivity (PSR sort gate): low polyreactivity

## QVQIEESGGGLVQAGGSLRLSCAASGLIFGSYVMGWYRQAPGKERELVAAITVRTGTTYYADSVKGRFTISRDNAKNTVYLKMNSLKPEDTAVYYCALRYRPKYGYWGQGTQVTVSS
  polyreactivity (PSR sort gate): high polyreactivity

## QVQLVESGGGLVQAGGSLRLSCAASGSTFYTNAMGWYRQAPGKERELFAAIRQSGGTTHYADSVKGRFTISRDNAKNTVYLLMNSLKPEDTAVYYCAAVSGGYSRRYRYGYWGQGTQVTVSS
  polyreactivity (PSR sort gate): high polyreactivity

## QVQLVESGGGLVQAGGSLRLSCAASGSTFSDYAMGWYRPEPGQERELVATITSTGDTNYADSVKGRFTISRDNAKNTVYLQMNSLKPEDTAVYYCAAQHKKYGKRGLWNNFGYWGQGTQVSVSS
  polyreactivity (PSR sort gate): low polyreactivity

## QVQLVESGGGLVQAGGSLRLSCAASGRTFGAYAMGWYRQAPGKERELVASISRSGGTTYYADSVKGRFTISRDTAKNTVYLQMNSLKPEDTAVYYCAAQYVRYGHYYWGQATQVTVSS
  polyreactivity (PSR sort gate): high polyreactivity

## QDQLVESGGGLVQAGGSIRLSCAASGYIFLLYDMGWYRQAPGKERDMVATITSGGGTYYADSVKGPFTISRDNAKNTVYLQMNSLKPEDTAVYYCNADLYRWTGRSYWDKHGYWGQVTQVTVSS
  polyreactivity (PSR sort gate): low polyreactivity

## QVQLVESGGGLVQAGGSLRLSCAASGFTFARYSMGWYRQAPGKERELVAAISRGGDSTYYADSVKGRFTISRDNAKNTVYLQMNSLKPEDSAVYYCAADISHRGYREYYSWGQGTQVTVSS
  polyreactivity (PSR sort gate): high polyreactivity

## QVQLVESGGGLVQAGGSLRLSCAASGSIFRIYAMGGYRQAPGKERELVAAITGRGGSTYYADSVKGRFTISRDNAKNTVYLQRNSLKPEDTAVYYCAAEERYAYRYDYWGQATQVTVSS
  polyreactivity (PSR sort gate): high polyreactivity

## QVQLVESGGGLVQAGGSLRLSCAASGIFTYNAMGWYRQAPGKERELVASITRGGSTNYADSVKGRFTISRDNAKNTVYLQMNSLKPEDTAVYYCAARVRVYSGWLYNYWGQGTQVTVSS
  polyreactivity (PSR sort gate): high polyreactivity

## QVQHVESGGGLVQAGGSLRLSCAASGSTFWYNAMGWYRQAPGKERELVAAISYSGGRTYYADSVKERFTISRDNAKNTVYLQMNSLKPEDTAVYYCNAASRYGGDYWGQGTQVTVSS
  polyreactivity (PSR sort gate): low polyreactivity

## QVQLVESGGGLVQAGGSLRLSCAASGSIFPAYAMGWYRQAPGKERELVAAITRGGSTDYADSVKGRFTISRDNAKNTVYLQMNSLKPEDTAVYYCATGDGPSLFDYWGQGTQVTVSS
  polyreactivity (PSR sort gate): low polyreactivity

## QVQLVESRGGLVQAGGSLRLSCAASGFIFTRYVMGWYRQAPGKERELVAGISTRGARTYYADSVKGRFTISRDNAKNTVYLQIHSLTPEDTAVYYCNKDWSRGWNYEYDYWGQGTQVTVSS
  polyreactivity (PSR sort gate): high polyreactivity

## QVQLVESGGGLVQAGGSLRLSCAASGITSHWYVMGWYRQAPGKERELVAAINSSGGRTSYADSVKGRFTISRDNAKNTVYLQMNSLKPEDTAVYYCAAGYTHSYFLGATGKVDYWGQGTQVTVSS
  polyreactivity (PSR sort gate): low polyreactivity

## QVQLVESGGGLVQAGGSLRLSCAASGYIFFFNAMAWYRQAPGKERELVAAITRRGVSTYYADSVKGRFTISRDNAKNTVYLQMNSLKPEDTAVYYCATEHNHLGYYYWGQGTQVTVSS
  polyreactivity (PSR sort gate): low polyreactivity

## QVQLVESGGGLVQAGGSLRLSCAASGRIFPVNAMGWYRQAPGKERELVATISSGDITNYADSVKGRFTISRDNAKNTVYLQMNSLKPEDTAVYYCAADYTWRAWTYYGIKYNYWGQGTQVTVSS
  polyreactivity (PSR sort gate): low polyreactivity

## QVQLVESGGGLVQAGGSLRLSCAASGITFYYYAMGWYRQAPGKERELVAAITVNGGTTYYADSVKGRFTISRDNAKNTVYLQMNSLKPEDTAVYYCNADGTFEYDYWGQGTQVTVSS
  polyreactivity (PSR sort gate): low polyreactivity

## QVQLVESGGGKLQAGGSLRLSCAASGIILYVYAMGWYRQAPGKARELVAAITWSGGSTYYADSEKGRFTISRDNAKNTVYLQMNSLKPEDTAVYYCAVDVHTSADASLPQEYDYWGPGTQVTVSS
  polyreactivity (PSR sort gate): low polyreactivity

## QVQLVESGGGLVQAGGSLRLSCAASGFIFPWYAMGGYRQAPRKERELVAAITSGGTTYYADSVKGRFTISRDNAKNTVYLQMNSLKPEDTAVYYCAAQYYFYPHEFDYWGQGTQVTVSS
  polyreactivity (PSR sort gate): low polyreactivity

## QVQLVESGEGLVQAGGSLRLICAASGRNFYSNAMVWYRQAPGKERELVAAMSYSGGSTYYADSVKGRFTISRDNAKNTVYLQMNSLKPEDTAVYYCAADTTYWPYWGTYVVYDYWGQGTQVTVSS
  polyreactivity (PSR sort gate): low polyreactivity

## QVQLVESGGGLVQAGGSLRLSCAASGRTLPPNAMGWYRQAPGKERELVAGITWSGGSTYYADSVKGRFTISRDNAKNTVYLQMNSLKPEDTAVYYCAASRSFPGYGLYYYWGQGTQVTVSS
  polyreactivity (PSR sort gate): low polyreactivity

## QVQLVESGGGLVQAGGSLRLSCAASGRIFRRYAMGCYIQAPGKERELVAGITGSGTSTYYADSVKGRFTISRDNAKNTVYLQMNSLKPEDTAVYYCAADRGRGYRYNYWGQGTQVTVSS
  polyreactivity (PSR sort gate): high polyreactivity

## QVQLVESGGGLVQAGGSLRLSCAASGFIFGPYAMGWYRTAPGKERELVAAITYSSGSTYYADSVKGRFTISRDNAKNTVYLQMNSLKPEDTAVYYCNAEFWYETLYEYDYWGQGTQVTVSS
  polyreactivity (PSR sort gate): high polyreactivity

## QVQLVESGGGLVQAGGSLRLSCAASGRICVYYAMGWYRQAPGKEREFVAAISWSGGSTYYADSVKGRFTISRDNAKNTVYLQMNSLKPEDTAVYYCAADVPWTVYYRWYDYWGQGTLVTVSS
  polyreactivity (PSR sort gate): low polyreactivity

## QVQLVESGRGLVQAGGSLRLSCAASGSIFYGNTMGWYRQAPGTERELVASITRPGDRTYYADSVKGRFTLSRDNAKNTVDLQMNSLKAEDTAVYYCNAGLVLPPPGACIVYFDQMDYWGQGTQVTVSS
  polyreactivity (PSR sort gate): low polyreactivity

## QVQLQESGGGLVQAGGSLRLSCAASGSNFKVVEMGLYRQAPAKDREFVATIGEGGNTYYADSVKGRFTISRDNAKNTVYLQMNSLKPEDTAVYFYAVVLGTSYRYTYWGQGTQVTVSS
  polyreactivity (PSR sort gate): low polyreactivity

## QVQLLESGGGLVQAGGSLRLSCAASGSIFFYYAMGWDRQAPGKERELVATITSGGSTSYADSVKGRFTISRDNAKNTVYLQMNSLKPEDTAVYYCAARKVTKSTYNYWGQGTQVTVSS
  polyreactivity (PSR sort gate): low polyreactivity

## QVQLVESGGGLVQAGGSLRLSCAASGFIFATYDMGWYRQAPGKERELVAAIDSDGSTNYADSVKGRYTISRDNAKNTVYLQMNSLKPEDTEVYYCAADRFQWGFWWLEYWGQGTQVTVSS
  polyreactivity (PSR sort gate): high polyreactivity

## QVQLVESGGGLVQAGGSLRLSCAASGRTSLRYAMGWYRLAPGKDRELVAAIRYGGGSTRYADSVKGRFTISRDNAKNTVYLQMKSLKPEDTAVSYCAARYFPRIQYGRKGYDYWGQGTQVTVSA
  polyreactivity (PSR sort gate): low polyreactivity

## QVQLVESGGGLVQAGGSLRLSCAASGSIFQTYAMGWYRQAPGKERELVAAIDGGDTTNYADSVKGRFTISRDNAKNTVYLQMNSLKPEDTAVYYCNADWGQVTQVTVSS
  polyreactivity (PSR sort gate): low polyreactivity

## QVQLVETGGGLVQAGGSLRLSCAASGYIFYVYAMGWYRQPPGKERELVAAINSGDITYYADSVKGRFTISRDNAKNTVYLQMNRLKPEDTAVYFGATVLILIYDYWGQGTQVTVSS
  polyreactivity (PSR sort gate): low polyreactivity

## QVQLVESGGGLVQAGGSLRLSCAASGLTFGRYAMGWYRQAPGKERELVAAITRSGGRTYYADSVKGRFTISRDNAKNTVYLQMNSLKPEDTAVYYCNKLSHLGAPGDPDDYWGQGTQVTVSS
  polyreactivity (PSR sort gate): high polyreactivity

## QVQLVESGGGLVQAGGSLRLSCAASGRIFERYAMGWYRQAPGKERELVAAISWSGGSTYYADSVKGRFTISRDNAKNTVYLQMNSLKPEDTAVYYCAARKYRSFRQRTGDYWGQGTQVTVSS
  polyreactivity (PSR sort gate): high polyreactivity

## QVQLVESGGGLVQAGGSLRLSCAASGRTFGTYAMGWYRQAPGKERELVAAIRSNAGSTYYADSVKGRFTISRDNAKNTVYLQMNSLKPEDTAVYYCAKSYRSSRRYNYWGQGTQVTVSS
  polyreactivity (PSR sort gate): high polyreactivity

## QVQLVESGGGLVQAGGSLRLSCAASGSIFKYYTMGWYRQAPGKERELVSGISYRGGSTYYADSVKGRFTISRDNAKNTVYLQMNSLKPEDTAVYYCATGSGFSPRRNTFRYGYWGQGTQVTVSS
  polyreactivity (PSR sort gate): high polyreactivity

## QVQLVESGVGLVQAAGSLRLSCAASGSIFPDNAMGWSRQAPGKERELVAAIDKGTGSTNYADSVKGRFTISRDNAKNTVYLQMNSLKPEDTAVYYCATYVVTLYWWYTYDYWGQGTQVTVSS
  polyreactivity (PSR sort gate): low polyreactivity

## QVQLVESGGGLVQAGGSLRLSCAASGFIFRYNAMGWYRQAPGKERELVARISSGGSTNYADSVKGRFTISRDNAKNTVYLQMNSLKPEDTAVYYCAVKQYWYIWSGYGYDYWGQGTQVTVSS
  polyreactivity (PSR sort gate): high polyreactivity

## QVQLQESGGGLVQAGGSLRLSCAASSNHSTLDVMGWYRQAPGKEREIVASIGSGGITNYADSVKGRFTISRDNAKNTVYLQMNSLKPEDTAVYYFAVLNQAYTDLIYWGQGTQVTVSS
  polyreactivity (PSR sort gate): high polyreactivity
